According to US20160038607A1 (UNIVERSITY OF NOTRE DAME DU LAC, published 2016):
Bridges are numbered along the chain shown (N, C = ends). Where no end group is shown, it is not given here.

B1: HER2-pep-EG12-PA conjugate on PEG350 coated liposomes (95:10:3:2 HSPC:CHOL:PEG350:HER2-pep) (peptide)
peptide: YCDGFYACYMDV
modifications: disulfide 2-8 (inferred); not fully specified (N-terminus); also: displayed on PEG350-coated liposomes

How the values were obtained:
[1] = target: T1, Human Epidermal Growth Factor Receptor 2 (HER2) (human, UniProt P04626 23-1255); test: flow cytometry, fluorescein labeled peptide on BT-474 cells, on ice
T1 construct: whole, on cells; also called HER2 receptor
Description: (§1) For HER2 expression assays, cells were incubated with primary antibody in binding buffer on ice for 1 hour and washed twice. Fluorescein conjugated secondary antibody was added for 1 hour on ice, samples were washed, and analyzed on Guava easyCyte 8HT flow cytometer (Millipore). Isotype matched antibodies were used as negative controls. For cell-based peptide binding assays, cells were incubated with increasing concentrations of fluorescein-conjugated peptides for 2 hours on ice. Samples were washed twice and analyzed on Guava easyCyte 8HT flow cytometer.

[2] = target: T1, Human Epidermal Growth Factor Receptor …; test: flow cytometry, fluorescein labeled peptide on SK-BR-3 cells, on ice
Description: as §1

[3] = target: T1, Human Epidermal Growth Factor Receptor …; test: cell-based or functional assay

Binder	Kd [1] [nM]	Kd [2] [nM]	cellular uptake of liposomes at 2% peptide density, fold enhancement [3] [fold]	cellular uptake of liposomes by BT-474 and SK-BR-3 cells, 3 h (flow cytometry), fold greater than control [3] [fold]	cellular uptake of liposomes by BT-474 cells at 24 h, fold greater than control liposomes [3] [fold]	cellular uptake of liposomes by SK-BR-3 cells at 24 h, fold greater than control liposomes [3] [fold]
YCDGFYACYMDV (disulfide 2-8 (inferred); also: fluorescein label, position not given here) [HER2-antagonist peptide (HER2-pep), fluorescein labeled]	1970	1750				
B1			~10	~9	~5	~4
